In patent US20260209363A1 (Chugai, published 2026):

T1: human soluble IL-6R (human, UniProt P08887 20-357, limits assumed)
T1 construct: Soluble form; also called sIL6R; Human IL-6R
T1 sequence (looked up): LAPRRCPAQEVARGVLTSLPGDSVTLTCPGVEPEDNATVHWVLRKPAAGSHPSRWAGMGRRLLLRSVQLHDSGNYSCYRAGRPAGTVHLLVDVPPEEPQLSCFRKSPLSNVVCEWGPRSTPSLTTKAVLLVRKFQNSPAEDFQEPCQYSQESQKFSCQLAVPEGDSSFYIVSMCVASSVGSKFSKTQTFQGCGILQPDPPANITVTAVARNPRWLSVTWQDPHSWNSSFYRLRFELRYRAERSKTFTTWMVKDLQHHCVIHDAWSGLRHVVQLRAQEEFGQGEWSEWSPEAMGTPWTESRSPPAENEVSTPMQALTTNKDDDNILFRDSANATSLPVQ


Columns and labels:
human soluble IL-6R [1] = molecular target: T1, human soluble IL-6R; assay: in vivo KD in mouse plasma (albumin present), from total antibody, free and bound sIL6R 5 min after sIL6R; antibody 0.2 mg/kg IV
Method: (§1) Next, free sIL6R in plasma was measured. The concentration of free sIL6R in plasma was measured on a fully automated ELISA system (Gyrolab xP workstation). First, sIL6R prepared at 23.4, 46.9, 93.8, 188, 375, 750, and 1500 ng/mL using a Protein-Free (PBS) Blocking Buffer (Thermo Scientific) was used as solutions for preparing the calibration curve. Mouse plasma samples were used in the measurements without diluting them. A solution of biotin-labeled H54 diluted to 10 micro g/mL using a Protein-Free (PBS) Blocking Buffer was used as a solution of the sIL6R-capturing molecule. Alexa Fluor (registered trademark) 647-labeled anti-human IL-6R antibody (R&D Systems) diluted to 1 micro g/mL using a Protein-Free (PBS) Blocking Buffer was used as a solution of the human IL-6R-detection molecule. PBS (pH 7.4) containing 0.05% TWEEN was used as a washing solution. The calibration curve solutions, mouse plasma samples, sIL6R-capturing molecule solution, sIL6R-detection molecule solution, and the washing solution were placed onto a PCR plate, and then the PCR plate was sealed with a plate sealer. After the PCR plate and the Bioaffy 200 disc were placed in the Gyrolab xP workstation, measurements were taken. Using the data processed by the Gyros Evaluater 3.6.2.30 software and the calibration curve concentrations, the concentration of free sIL6R in plasma was calculated by logistic regression using the XLfit 5.5.0.5 software.
Additionally, bound sIL6R in plasma was measured. The concentration of bound sIL6R in plasma was measured on an electrospray ionization mass spectrometer connected to a high-performance liquid chromatography (LC/ESI-MS/MS). First, H54//IC17 and sIL6R were mixed, and solutions for preparing the calibration curve of bound sIL6R were prepared at theoretical plasma concentrations of 0.0468, 0.467, 4.60, and 20.1 nmol/mL. […]

human soluble IL-6R [2] = molecular target: T1, human soluble IL-6R; assay: in vivo KD in mouse plasma (albumin present), from total antibody, free and bound sIL6R 5 min after sIL6R; antibody 1 mg/kg IV
Method: as §1
Additionally, bound sIL6R in plasma was measured. The concentration of bound sIL6R in plasma was measured on an electrospray ionization mass spectrometer connected to a high-performance liquid chromatography (LC/ESI-MS/MS). First, H54//IC17 and sIL6R were mixed, and solutions for preparing the calibration curve of bound sIL6R were prepared at theoretical plasma concentrations of 0.0468, 0.467, 4.60, and 20.1 nmol/mL. The solutions for preparing the calibration curve and 1 or 2 micro L of a plasma sample were added to 75 or 150 micro g of magnetic beads (Magnosphere MS300/Carboxyl, JSR) to which anti-delta GK antibodies were solid-phased, and this was shaken at 25 degrees C. for one hour.

mouse albumin = molecular target: T2, mouse albumin (mouse, UniProt P07724 25-608); assay: SPR (Biacore T200), antibody captured by anti-human Fc antibody, mouse albumin as analyte, 25 degrees C
T2 construct: also called recombinant mouse Albumin; mouse serum albumin
Method: Binding activities of the produced antibodies against mouse albumin were evaluated using Biacore T200 (Cytiva).
As the running buffer, 50 mM Na Phosphate (pH 7.4), 150 mM NaCl, 0.05% Tween20 was used, and the evaluation was performed at 25 degrees C. First, anti-human Fc antibody (Cytiva) was used as a ligand-capturing molecule. Anti-human Fc antibody (Cytiva) was solid-phased on a Series S Sensor Chip CM4 (Cytiva) using an Amine Coupling Kit (Cytiva). Antibody solution prepared using the running buffer was allowed to interact with this CM4 sensor chip to capture approximately 120 RU of the antibody. Mouse albumin (Bioscience) was diluted to 0 and 300 nM with the running buffer and allowed to bind to the captured antibody. The chip was regenerated using 3 M MgCl₂, and measurements were performed by repeatedly capturing the antibodies. Dissociation constant (KD) of each antibody for mouse albumin was calculated using Biacore T200 Evaluation Software 2.0. Specifically, the association rate constant ka (L/mol/s) and the dissociation rate constant kd (1/s) were calculated by global fitting of the sensorgrams obtained by measurement with the 1:1 Langmuir binding model, and the dissociation constant KD (mol/L) was calculated from these values.

human soluble IL-6R [3] = molecular target: T1, human soluble IL-6R; assay: SPR (Biacore T200), antibody captured on Protein G, human IL-6R as analyte, 37 degrees C, no albumin
Method: Binding activities of the produced albumin switch molecules against human IL-6R were evaluated using Biacore T200 (Cytiva). As the running buffer, 50 mM Na Phosphate (pH 7.4), 150 mM NaCl, 0.05% Tween20 was used, and the evaluation was performed at 37 degrees C. First, Protein G (CALBIOCHEM) was used as a ligand-capturing molecule. Protein G (CALBIOCHEM) was solid-phased on a Series S Sensor Chip CM4 (Cytiva) using an Amine Coupling Kit (Cytiva). Antibody solution prepared using the running buffer was allowed to interact with this CM4 sensor chip to capture approximately 200 RU of the antibody. Human IL-6R used in the present measurement was prepared by an approach described in WO2018097307 (Example 3-2). Human IL-6R was diluted to 0, 100, and 400 nM with the running buffer, and allowed to bind to the captured antibody. The chip was regenerated using 3 M MgCl₂, and measurements were performed by repeatedly capturing the antibodies. Dissociation constant (KD) of each antibody for human IL-6R was calculated using Biacore T200 Evaluation Software 2.0. Specifically, the association rate constant ka (L/mol/s) and the dissociation rate constant kd (1/s) were calculated by global fitting of the sensorgrams obtained by measurement with the 1:1 Langmuir binding model, and the dissociation constant KD (mol/L) was calculated from these values.

human soluble IL-6R [4] = molecular target: T1, human soluble IL-6R; assay: Gyrolab xP immunoassay of antibody-antigen complex in C57BL/6J mouse plasma (albumin present), 1 nM antibody, 4 nM antigen

Row | Kd (human soluble IL-6R [1]) [nM] | Kd (human soluble IL-6R [2]) [nM] | Kd (mouse albumin) [nM] | koff (mouse albumin) [s⁻¹] | kon (mouse albumin) [M⁻¹ s⁻¹] | Kd (human soluble IL-6R [3]) [nM] | koff (human soluble IL-6R [3]) [s⁻¹] | kon (human soluble IL-6R [3]) [M⁻¹ s⁻¹] | decrease in the signal derived from the complex, compared to H54//IC17 (human soluble IL-6R [4]) [%] | Binder
1 | 49.1 | 57.3 | 11.6 | 0.00131 | 113000 | 2.65 | 0.00118 | 445000 | – | ABD094(L)-H54//IC17 (bispecific antibody, human IgG1, kappa) heavy 1: QVQLQESGPGLVKPSETLSLTCAVSGYSISDDQAWSWVRQPPGEGLEWIGYISYSGITNYNPSLKGRVTISRDTSKNQFSLKLSSVTAADTAAYYCARSLARTTAMDYWGEGTLVTVSSASTKGPSVFPLAPSSKSTSGGTAALGCLVEDYFPEPVTVSWNSGALTSGVHTFPAVLQSSGLYSLSSVVTVPSSSLGTQTYICNVNHKPSNTKVDERVEPKSCDKTHTCPPCPAPELRRGPSVFLFPPKPKDTLMISRTPEVTCVVVDVSHEDPEVKFNWYVDGVEVHNAKTKPREEQYNSTYRVVSVLTVLHQDWLNGKEYKCKVSNKALPAPIEKTISKAKGQPREPQVCTLPPSREEMTKNQVSLSCAVKGFYPSDIAVEWESNGQPENNYKTTPPVLDSDGSFFLVSKLTVDKSRWQQGNVFSCSVMHEALHNHYTQKSLSLSP light 1: LAEAKEAANAELDSYGVSDFYKRLIDKAKTVEGVEALKDAILAALPDIQMTQSPSSLSASVGDSVTITCQASQDISSYLNWYQQKPGKAPELLIYYGSELHSGVPSRFSGSGSGTDFTFTISSLEAEDAATYYCQQGNSLPYTFGQGTKVEIERTVAAPSVFIFPPSDRKLKSGTASVVCLLNNFYPREAKVQWKVDNALQSGNSQESVTEQDSKDSTYSLSSTLTLSKADYEKHKVYACEVTHQGLSSPVTKSFNRGEC heavy 2: not shown light 2: QVQLQQSGPQLVRPGASVKISCKASGYSFTSYWMHWVNQRPGQGLEWIGMIDPSYSETRLNQKFKDKATLTVDKSSSTAYMQLSSPTSEDSAVYYCALYGNYFDYWGQGTTLTVSSASVAAPSVFIFPPSDEQLKSGTASVVCLLNNFYPREAKVQWKVDNALQSGNSQESVTEQDSKDSTYSLSSTLTLSKADYEKHKVYACEVTHQGLSSPVTKSFNRGEC
2 | – | – | – | – | – | – | – | – | 95 | ABD094(H/L).N10-H54//IC17 (bispecific antibody, human IgG1, kappa, ABD094 linked via N10 linker (G) at VH and VL N-termini of the IL-6R arm; also called ABD094(H/L).NTO-H54//IC17; ABD094(H/L).NO-H54//IC17) heavy 1: LAEAKEAANAELDSYGVSDFYKRLIDKAKTVEGVEALKDAILAALPGQVQLQESGPGLVKPSETLSLTCAVSGYSISDDQAWSWVRQPPGEGLEWIGYISYSGITNYNPSLKGRVTISRDTSKNQFSLKLSSVTAADTAAYYCARSLARTTAMDYWGEGTLVTVSSASTKGPSVFPLAPSSKSTSGGTAALGCLVEDYFPEPVTVSWNSGALTSGVHTFPAVLQSSGLYSLSSVVTVPSSSLGTQTYICNVNHKPSNTKVDERVEPKSCDKTHTCPPCPAPELRRGPSVFLFPPKPKDTLMISRTPEVTCVVVDVSHEDPEVKFNWYVDGVEVHNAKTKPREEQYNSTYRVVSVLTVLHQDWLNGKEYKCKVSNKALPAPIEKTISKAKGQPREPQVCTLPPSREEMTKNQVSLSCAVKGFYPSDIAVEWESNGQPENNYKTTPPVLDSDGSFFLVSKLTVDKSRWQQGNVFSCSVMHEALHNHYTQKSLSLSP light 1: LAEAKEAANAELDSYGVSDFYKRLIDKAKTVEGVEALKDAILAALPGDIQMTQSPSSLSASVGDSVTITCQASQDISSYLNWYQQKPGKAPELLIYYGSELHSGVPSRFSGSGSGTDFTFTISSLEAEDAATYYCQQGNSLPYTFGQGTKVEIERTVAAPSVFIFPPSDRKLKSGTASVVCLLNNFYPREAKVQWKVDNALQSGNSQESVTEQDSKDSTYSLSSTLTLSKADYEKHKVYACEVTHQGLSSPVTKSFNRGEC heavy 2: not shown light 2: QVQLQQSGPQLVRPGASVKISCKASGYSFTSYWMHWVNQRPGQGLEWIGMIDPSYSETRLNQKFKDKATLTVDKSSSTAYMQLSSPTSEDSAVYYCALYGNYFDYWGQGTTLTVSSASVAAPSVFIFPPSDEQLKSGTASVVCLLNNFYPREAKVQWKVDNALQSGNSQESVTEQDSKDSTYSLSSTLTLSKADYEKHKVYACEVTHQGLSSPVTKSFNRGEC
3 | – | – | – | – | – | – | – | – | 55 | ABD094(H/L).N02-H54//IC17 (bispecific antibody, human IgG1, kappa) heavy 1: LAEAKEAANAELDSYGVSDFYKRLIDKAKTVEGVEALKDAILAALPGGGGSQVQLQESGPGLVKPSETLSLTCAVSGYSISDDQAWSWVRQPPGEGLEWIGYISYSGITNYNPSLKGRVTISRDTSKNQFSLKLSSVTAADTAAYYCARSLARTTAMDYWGEGTLVTVSSASTKGPSVFPLAPSSKSTSGGTAALGCLVEDYFPEPVTVSWNSGALTSGVHTFPAVLQSSGLYSLSSVVTVPSSSLGTQTYICNVNHKPSNTKVDERVEPKSCDKTHTCPPCPAPELRRGPSVFLFPPKPKDTLMISRTPEVTCVVVDVSHEDPEVKFNWYVDGVEVHNAKTKPREEQYNSTYRVVSVLTVLHQDWLNGKEYKCKVSNKALPAPIEKTISKAKGQPREPQVCTLPPSREEMTKNQVSLSCAVKGFYPSDIAVEWESNGQPENNYKTTPPVLDSDGSFFLVSKLTVDKSRWQQGNVFSCSVMHEALHNHYTQKSLSLSP light 1: LAEAKEAANAELDSYGVSDFYKRLIDKAKTVEGVEALKDAILAALPGGGGSDIQMTQSPSSLSASVGDSVTITCQASQDISSYLNWYQQKPGKAPELLIYYGSELHSGVPSRFSGSGSGTDFTFTISSLEAEDAATYYCQQGNSLPYTFGQGTKVEIERTVAAPSVFIFPPSDRKLKSGTASVVCLLNNFYPREAKVQWKVDNALQSGNSQESVTEQDSKDSTYSLSSTLTLSKADYEKHKVYACEVTHQGLSSPVTKSFNRGEC heavy 2: not shown light 2: QVQLQQSGPQLVRPGASVKISCKASGYSFTSYWMHWVNQRPGQGLEWIGMIDPSYSETRLNQKFKDKATLTVDKSSSTAYMQLSSPTSEDSAVYYCALYGNYFDYWGQGTTLTVSSASVAAPSVFIFPPSDEQLKSGTASVVCLLNNFYPREAKVQWKVDNALQSGNSQESVTEQDSKDSTYSLSSTLTLSKADYEKHKVYACEVTHQGLSSPVTKSFNRGEC
